Assay results taken from paper PMC2683891.

Legend:
Experiment in all cases: purified protein
Format in all cases: biochemical, Campylobacter jejuni
Details in all cases: 100 mM HEPES pH 7.5, 200 mM KCl, 1.8 mM DTNB, 25 °C
purified protein [1] = substrate: CCCCCC(=O)SCCNC(=O)CCNC(=O)[C@H](O)C(C)(C)COP(=O)(O)OP(=O)(O)OC[C@H]1O[C@@H](n2cnc3c(N)ncnc32)[C@H](O)[C@@H]1OP(=O)(O)O
purified protein [2] = substrate: CCCCCCCCCCCCCCCC(=O)SCCNC(=O)CCNC(=O)[C@H](O)C(C)(C)COP(=O)(O)OP(=O)(O)OC[C@H]1O[C@@H](n2cnc3c(N)ncnc32)[C@H](O)[C@@H]1OP(=O)(O)O
purified protein [3] = substrate: CCCCCCCCCCCC(=O)SCCNC(=O)CCNC(=O)[C@H](O)C(C)(C)COP(=O)(O)OP(=O)(O)OC[C@H]1O[C@@H](n2cnc3c(N)ncnc32)[C@H](O)[C@@H]1OP(=O)(O)O
purified protein [4] = substrate: CCCC(=O)SCCNC(=O)CCNC(=O)[C@H](O)C(C)(C)COP(=O)(O)OP(=O)(O)OC[C@H]1O[C@@H](n2cnc3c(N)ncnc32)[C@H](O)[C@@H]1OP(=O)(O)O

B1: Cj0915 (Campylobacter jejuni subsp. jejuni NCTC 11168 = ATCC 700819) (protein)
chain: MRDMGEPKLKIVAMPSDTNPAGNIFGGWILSQIDLAGAIAARELSPERVVTISMDKVVFKEPVFIGDIISCYSKVVNVGNTSISVEVEVTAQRVDSQGCTSCINVTSALVTYVSVTRDGKKNPISEELKRIHGFLNA
Purified protein [1]
  Km: 39.3 ± 15.2 µM
  Vmax: 54.3 µmol/min/mg
  kcat: 13.4 ± 2 s⁻¹
  kcat/Km: 340000 M⁻¹ s⁻¹
Purified protein [2]
  Km: 10.6 ± 0.6 µM
  Vmax: 38.9 µmol/min/mg
  kcat: 9.6 ± 0.3 s⁻¹
  kcat/Km: 910000 M⁻¹ s⁻¹
Purified protein [3]
  Km: 13.9 ± 1.4 µM
  Vmax: 63.3 µmol/min/mg
  kcat: 15.6 ± 0.7 s⁻¹
  kcat/Km: 1.1e+06 M⁻¹ s⁻¹
Purified protein [4]
  Km: 40.8 ± 10.3 µM
  Vmax: 55 µmol/min/mg
  kcat: 13.6 ± 1.3 s⁻¹
  kcat/Km: 330000 M⁻¹ s⁻¹
